Read-outs that look alike come from different tables or passages of the source.

For experiment [1], the target named is lysyl oxidase (rat (endogenous in RRECs)) (UniProt P16636). Put plainly: co-IP.
Experiment [2] shares this target. Put plainly: co-IP. The source holds these as a separate data set.

Sequence of UniProt P16636 (P16636 22-411): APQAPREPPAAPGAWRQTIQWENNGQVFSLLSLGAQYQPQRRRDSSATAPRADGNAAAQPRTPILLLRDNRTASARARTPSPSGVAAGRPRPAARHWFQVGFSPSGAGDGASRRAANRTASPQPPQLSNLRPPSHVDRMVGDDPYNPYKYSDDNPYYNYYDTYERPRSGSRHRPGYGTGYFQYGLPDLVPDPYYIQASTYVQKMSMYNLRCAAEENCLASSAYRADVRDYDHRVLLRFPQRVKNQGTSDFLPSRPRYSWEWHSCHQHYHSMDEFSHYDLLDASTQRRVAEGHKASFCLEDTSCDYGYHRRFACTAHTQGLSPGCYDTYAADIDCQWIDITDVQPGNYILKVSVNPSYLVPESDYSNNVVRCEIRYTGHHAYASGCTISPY

In the case of collagen IV (natural protein), the LOX bound to Coll IV in HG medium, % of normal-glucose control in experiment [1] was 138 % of control; in experiment [2], 144 % of control.

Take “fibronectin (from UniProt P04937 25-2477) (natural protein)”: the values for the LOX bound to FN in HG medium, % of normal-glucose control in experiment [1] and in experiment [2] were 156 % of control and 168 % of control, respectively.

These data come from publication PMC7401919.
